Source: US7754689B2, “Finger-1 peptide analogs of the TGF-β superfamily” (Wyeth LLC, priority 2006, dated 2010)
No end group written: not given here.

What was measured:
BMP-12 [1] = molecular target: T1, BMP-12 (Homo sapiens, UniProt Q7Z4P5); test: Filter-plate binding and elution of BMP-12 on peptide-coupled affinity resins
T1 sequence (Q7Z4P5 322-450): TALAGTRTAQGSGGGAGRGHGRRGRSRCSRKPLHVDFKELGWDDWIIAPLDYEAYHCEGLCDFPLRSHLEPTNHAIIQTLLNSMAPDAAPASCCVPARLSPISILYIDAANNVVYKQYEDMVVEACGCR
Protocol: The coupled resins, plus an unconjugated resin for use as a control, were suspended in 16% ethanol, 150 mM NaCl, and 20 mM Tris buffer at pH 7.5 at a 25% v/v ratio (e.g., […]). A Tecan liquid-handling robot was employed to aliquot 200 μL of each slurry into one of eight rows of a 96 well polystyrene filter plate (0.45 μm hydrophilic filters, Whatman catalog number 770-1806). Spinning at 1200 g for 3 min removed the liquid phase, leaving 50 μL of wet resin on the filters. The resins were then equilibrated with the loading buffers listed in Table 6 (K is a coefficient characterizing the strength of protein binding to a particular resin in a particular buffer). […] The resins were loaded by transferring 150 μL from the load plate to the filter plate and then incubating 20 min on a shaking platform to facilitate binding. The filter plate was spun down and the filtrate collected in a 96 well UV plate. The protein concentration in the filtrate, or flow-through, was calculated as (A280-A320)/1.3. The filter plate was then washed with 150 μL of 100 mM acetic acid, followed by 150 μL of 4M guanidine-HCl and 50 mM sodium acetate at pH 4.0. The protein concentration was measured in the new filtrate as described above. […] However, for peptides 750 and 751, the binding was strong in 25 mM MES at pH 6 but weak in 50 mM acetic acid with 0.1 M NaCl at pH 3.0, which can allow an efficient binding-elution process without the need for chaotrops or organic reagents. Flow-through and acetic acid elution samples from column 4 of the plate (loaded with MES pH 6) were analyzed on a gel (FIG. 14).

BMP-12 [2] = molecular target: T2, BMP-12 (UniProt Q7Z4P5 322-450, limits assumed); test: peptide resin, filter plate; load 5: 25 mM HEPES pH 7.0
T2 construct: also called BMP12/GDF7
T2 sequence (looked up): T1 sequence (Q7Z4P5 322-450)
Protocol: (§1) The coupled resins, plus an unconjugated resin for use as a control, were suspended in 16% ethanol, 150 mM NaCl, and 20 mM Tris buffer at pH 7.5 at a 25% v/v ratio (e.g., 25% ethanol, 75% Tris buffer). A Tecan liquid-handling robot was employed to aliquot 200 μL of each slurry into one of eight rows of a 96 well polystyrene filter plate (0.45 μm hydrophilic filters, Whatman catalog number 770-1806). Spinning at 1200 g for 3 min removed the liquid phase, leaving 50 μL of wet resin on the filters. The resins were then equilibrated with the loading buffers listed in Table 6 (K is a coefficient characterizing the strength of protein binding to a particular resin in a particular buffer). […] The resins were loaded by transferring 150 μL from the load plate to the filter plate and then incubating 20 min on a shaking platform to facilitate binding. The filter plate was spun down and the filtrate collected in a 96 well UV plate. The protein concentration in the filtrate, or flow-through, was calculated as $(A280-A320)/1.3$. The filter plate was then washed with 150 μL of 100 mM acetic acid, followed by 150 μL of 4M guanidine-HCl and 50 mM sodium acetate at pH 4.0. The protein concentration was measured in the new filtrate as described above. […] Flow-through and acetic acid elution samples from column 4 of the plate (loaded with MES pH 6) were analyzed on a gel (FIG. 14).

BMP-12 [3] = molecular target: T2, BMP-12; test: peptide resin, filter plate; load 2: 50 mM Acetic Acid, 0.1 M NaCl, pH 4.0
Protocol: as §1

BMP-12 [4] = molecular target: T2, BMP-12; test: peptide resin, filter plate; load 6: 1M CHES pH 9.7
Protocol: as §1

BMP-12 [5] = molecular target: T2, BMP-12; test: peptide resin, filter plate; load 11: 50 mM Tris, 0.25 M NaCl, 30% MPD, pH 8.0
Protocol: as §1

BMP-12 [6] = molecular target: T2, BMP-12; test: peptide resin, filter plate; load 12: 50 mM Tris, 0.1 M NaCl, 20% MPD, pH 8.0
Protocol: as §1

BMP-12 [7] = molecular target: T2, BMP-12; test: peptide resin, filter plate; load 4: 25 mM MES pH 6.0
Protocol: as §1

BMP-12 [8] = molecular target: T2, BMP-12; test: peptide resin, filter plate; load 3: 25 mM Na Acetate pH 5.0
Protocol: as §1

BMP-12 [9] = molecular target: T2, BMP-12; test: peptide resin, filter plate; load 10: 50 mM Tris, 0.1 M NaCl, 40% MPD, pH 8.0
Protocol: as §1

BMP-12 [10] = molecular target: T2, BMP-12; test: peptide resin, filter plate; load 1: 50 mM Acetic Acid, 0.1 M NaCl, pH 2.9
Protocol: as §1

[11] = loaded in condition 1: 50 mM Acetic Acid, 0.1 M NaCl, pH 2.9
[12] = loaded in condition 2: 50 mM Acetic Acid, 0.1 M NaCl, pH 4.0
[13] = loaded in condition 3: 25 mM Na Acetate pH 5.0
[14] = loaded in condition 4: 25 mM MES pH 6.0
[15] = loaded in condition 5: 25 mM HEPES pH 7.0

Molecule: Ac-SDVGWNDWIVAPPGYHAFYSHGEK [Peptide 751]
- binding of BMP12 by resin coupled to peptide (BMP-12 [1]; 25 mM MES at pH 6): strong
- binding of BMP12 by resin coupled to peptide (BMP-12 [1]; 50 mM acetic acid with 0.1 M NaCl at pH 3.0): weak
- Yield (BMP-12 recovered from resin) (BMP-12 [1]; [11]): 104%
- Yield (BMP-12 recovered from resin) (BMP-12 [1]; [12]): 97%
- Yield (BMP-12 recovered from resin) (BMP-12 [1]; [13]): 100%
- Yield (BMP-12 recovered from resin) (BMP-12 [1]; [14]): 92%
- Yield (BMP-12 recovered from resin) (BMP-12 [1]; [15]): 107%

Molecule: Ac-VAPPGYHAFYSHGEK [Peptide 745]
- Yield (BMP-12 recovered from resin) (BMP-12 [1]; [11]): 100%
- Yield (BMP-12 recovered from resin) (BMP-12 [1]; [12]): 103%
- Yield (BMP-12 recovered from resin) (BMP-12 [1]; [13]): 105%
- Yield (BMP-12 recovered from resin) (BMP-12 [1]; [14]): 116%
- Yield (BMP-12 recovered from resin) (BMP-12 [1]; [15]): 103%

B1: BMP12 N-trun_1S peptide 749 (peptide)
peptide: Ac-ELGWDDWIIAPLDYEAYHSEGLK
- 100 mM HAc elution K (BMP-12 [2]): 1
- 100 mM HAc elution conc (BMP-12 [2]): 0.28 mg/mL
- 4M Gnd, 50 mM NaAc pH 4 Strip Conc (BMP-12 [2]): 0.093 mg/ml
- Flow-through K (BMP-12 [2]): 9
- Flow-through conc (BMP-12 [2]): 0.116 mg/mL
- 100 mM HAc elution K (BMP-12 [3]): 4
- 100 mM HAc elution conc (BMP-12 [3]): 0.175 mg/mL
- 4M Gnd, 50 mM NaAc pH 4 Strip Conc (BMP-12 [3]): 0.196 mg/ml
- Flow-through K (BMP-12 [3]): 26
- Flow-through conc (BMP-12 [3]): 0.05 mg/mL
- Flow-through K (BMP-12 [4]): -1
- Flow-through conc (BMP-12 [4]): 0.653 mg/mL
- Flow-through K (BMP-12 [5]): 0
- Flow-through conc (BMP-12 [5]): 0.416 mg/mL
- Flow-through K (BMP-12 [6]): 1
- Flow-through conc (BMP-12 [6]): 0.404 mg/mL
- 100 mM HAc elution K (BMP-12 [7]): 1
- 100 mM HAc elution conc (BMP-12 [7]): 0.321 mg/mL
- 4M Gnd, 50 mM NaAc pH 4 Strip Conc (BMP-12 [7]): 0.079 mg/ml
- Flow-through K (BMP-12 [7]): 56
- Flow-through conc (BMP-12 [7]): 0.025 mg/mL
- 100 mM HAc elution K (BMP-12 [8]): 2
- 100 mM HAc elution conc (BMP-12 [8]): 0.275 mg/mL
- 4M Gnd, 50 mM NaAc pH 4 Strip Conc (BMP-12 [8]): 0.126 mg/ml
- Flow-through K (BMP-12 [8]): 42
- Flow-through conc (BMP-12 [8]): 0.032 mg/mL
- Flow-through K (BMP-12 [9]): 0
- Flow-through conc (BMP-12 [9]): 0.434 mg/mL
- 100 mM HAc elution K (BMP-12 [10]): 6
- 100 mM HAc elution conc (BMP-12 [10]): 0.098 mg/mL
- 4M Gnd, 50 mM NaAc pH 4 Strip Conc (BMP-12 [10]): 0.141 mg/ml
- Flow-through K (BMP-12 [10]): 5
- Flow-through conc (BMP-12 [10]): 0.175 mg/mL

B2: BMP2 Full peptide 747 (peptide)
peptide: Ac-LYVDFSDVGWNDWIVAPPGYHAFYSHGEK
- 100 mM HAc elution K (BMP-12 [2]): 1
- 100 mM HAc elution conc (BMP-12 [2]): 0.255 mg/mL
- 4M Gnd, 50 mM NaAc pH 4 Strip Conc (BMP-12 [2]): 0.074 mg/ml
- Flow-through K (BMP-12 [2]): 11
- Flow-through conc (BMP-12 [2]): 0.103 mg/mL
- 100 mM HAc elution K (BMP-12 [3]): 6
- 100 mM HAc elution conc (BMP-12 [3]): 0.147 mg/mL
- 4M Gnd, 50 mM NaAc pH 4 Strip Conc (BMP-12 [3]): 0.15 mg/ml
- Flow-through K (BMP-12 [3]): 47
- Flow-through conc (BMP-12 [3]): 0.029 mg/mL
- Flow-through K (BMP-12 [4]): -1
- Flow-through conc (BMP-12 [4]): 0.659 mg/mL
- Flow-through K (BMP-12 [5]): 0
- Flow-through conc (BMP-12 [5]): 0.45 mg/mL
- Flow-through K (BMP-12 [6]): 0
- Flow-through conc (BMP-12 [6]): 0.438 mg/mL
- 100 mM HAc elution K (BMP-12 [7]): 1
- 100 mM HAc elution conc (BMP-12 [7]): 0.324 mg/mL
- 4M Gnd, 50 mM NaAc pH 4 Strip Conc (BMP-12 [7]): 0.065 mg/ml
- Flow-through K (BMP-12 [7]): 38
- Flow-through conc (BMP-12 [7]): 0.035 mg/mL
- 100 mM HAc elution K (BMP-12 [8]): 2
- 100 mM HAc elution conc (BMP-12 [8]): 0.274 mg/mL
- 4M Gnd, 50 mM NaAc pH 4 Strip Conc (BMP-12 [8]): 0.111 mg/ml
- Flow-through K (BMP-12 [8]): 28
- Flow-through conc (BMP-12 [8]): 0.046 mg/mL
- Flow-through K (BMP-12 [9]): 0
- Flow-through conc (BMP-12 [9]): 0.482 mg/mL
- 100 mM HAc elution K (BMP-12 [10]): 6
- 100 mM HAc elution conc (BMP-12 [10]): 0.123 mg/mL
- 4M Gnd, 50 mM NaAc pH 4 Strip Conc (BMP-12 [10]): 0.15 mg/ml
- Flow-through K (BMP-12 [10]): 10
- Flow-through conc (BMP-12 [10]): 0.114 mg/mL

B3: BMP5 peptide 748 (peptide)
peptide: Ac-RDLGWQDWIIAPEGYAAFYSDGEK
- 100 mM HAc elution K (BMP-12 [2]): 2
- 100 mM HAc elution conc (BMP-12 [2]): 0.257 mg/mL
- 4M Gnd, 50 mM NaAc pH 4 Strip Conc (BMP-12 [2]): 0.105 mg/ml
- Flow-through K (BMP-12 [2]): 23
- Flow-through conc (BMP-12 [2]): 0.055 mg/mL
- 100 mM HAc elution K (BMP-12 [3]): 6
- 100 mM HAc elution conc (BMP-12 [3]): 0.151 mg/mL
- 4M Gnd, 50 mM NaAc pH 4 Strip Conc (BMP-12 [3]): 0.229 mg/ml
- Flow-through K (BMP-12 [3]): 59
- Flow-through conc (BMP-12 [3]): 0.023 mg/mL
- Flow-through K (BMP-12 [4]): -1
- Flow-through conc (BMP-12 [4]): 0.626 mg/mL
- Flow-through K (BMP-12 [5]): 1
- Flow-through conc (BMP-12 [5]): 0.375 mg/mL
- Flow-through K (BMP-12 [6]): 1
- Flow-through conc (BMP-12 [6]): 0.383 mg/mL
- 100 mM HAc elution K (BMP-12 [7]): 2
- 100 mM HAc elution conc (BMP-12 [7]): 0.304 mg/mL
- 4M Gnd, 50 mM NaAc pH 4 Strip Conc (BMP-12 [7]): 0.091 mg/ml
- Flow-through K (BMP-12 [7]): 62
- Flow-through conc (BMP-12 [7]): 0.022 mg/mL
- 100 mM HAc elution K (BMP-12 [8]): 2
- 100 mM HAc elution conc (BMP-12 [8]): 0.264 mg/mL
- 4M Gnd, 50 mM NaAc pH 4 Strip Conc (BMP-12 [8]): 0.14 mg/ml
- Flow-through K (BMP-12 [8]): 57
- Flow-through conc (BMP-12 [8]): 0.024 mg/mL
- Flow-through K (BMP-12 [9]): 1
- Flow-through conc (BMP-12 [9]): 0.407 mg/mL
- 100 mM HAc elution K (BMP-12 [10]): 6
- 100 mM HAc elution conc (BMP-12 [10]): 0.123 mg/mL
- 4M Gnd, 50 mM NaAc pH 4 Strip Conc (BMP-12 [10]): 0.177 mg/ml
- Flow-through K (BMP-12 [10]): 11
- Flow-through conc (BMP-12 [10]): 0.106 mg/mL
